Source: patent publication US20250375541A1, “RADIOPHARMACEUTICAL COMPOSITION AND METHODS” (Ariceum Therapeutics GmbH, priority 2024, published 2025)

Test: Stability of the radiopharmaceutical composition: radiochemical purity by radio-TLC over time from EoP
Format: physicochemical
Conditions: Tris pH 8.0, sodium ascorbate formulation
Protocol: Upon reaction completion, the mixture was directly cooled down with formulation solution (123.7 mg/mL sodium ascorbate buffer) to yield a 20 mL [^225Ac]Ac-DOTA-satoreotide stock solution. Reaction completion is referred to as the “end-of-production” (EoP) time, or t=0 h as used in the following results.
This was determined by radio TLC as set out below.
Radio-TLC was performed at T=0 h and at various time points subsequent to the radiolabeling procedure. To run the procedure, 5 μL of reaction solution was spotted on a TLC plate (RP-C18 silica glass plates) at about 1.5 cm from bottom edge. The TLC plate was developed using a mobile phase mixture of ammonium acetate 25% and methanol (40:60 Vol.-%) with an elution length of about 5-6 cm. The TLC plate was dried and measured on a phosphor imager (Perkin Elmer Cyclone Plus Storage Phosphor system) once secular equilibrium of ^225Ac and ^221Fr/^213Bi was reached (>6 hours after development). Free Ac(III) stays at the origin while ^225Ac-DOTA-Satoreotide travels with the eluent front.
In FIG. 1, “T=Xh, read Yh” means that a sample was taken and developed at T=Xh but analyzed Yh after development of the TLC plate, to account for equilibrium of the daughters.

[^225Ac]Ac-DOTA-satoreotide showed a radiochemical purity (after 168 hours (from EoP) at ambient temperatures) of 95.8% and a radiochemical purity (at 96 h from EoP) of 98.9%.
